# Reference: patent publication US20250152742A1, “COMPOSITIONS AND METHODS FOR NEUROLOGICAL DISEASES” (Trames Bio, Inc., priority 2022, published 2025)
# B1: CODA333: engineered receptor: L131S in SEQ ID NO: 33 (protein)
# chain: MRCSPGGVWLALAASLLHVSLQGEFQRKLYKELVKNYNPLERPVANDSQPLTVYFSLSLLQIMDVDEKNQVLTTNIWLQMSWTDHYLQWNVSEYPGVKTVRFPDGQIWKPDILLYNSADERFDATFHTNVSVNSSGHCQYLPPGIFKSSCPMDLKNFPMDVQTCKLKFGSWSYGGWSLDLQMQEADISGYIPNGEWDLVGIPGKRSERFYECCKEPYPDVTFTVTMRRRMGYYLIQMYIPSLLIVILSWISFWINMDAAPARVGLGITTVLTMTTQSSGSRASLPKVSYVKAIDIWMAVCLLFVFSALLEYAAVNFVSRQHKELLRFRRKRRHHKSPMLNLFQEDEAGEGRFNFSAYGMGPACLQAKDGISVKGANNSNTTNPPPAPSKSPEEMRKLFIQRAKKIDKISRIGFPMAFLIFNMFYWIIYKIVRREDVHNQ
# modifications: synthetic sequence of chimeric LGIC
# Tested on: engineered chimeric receptor SEQ ID NO: 33 and its mutants (human α7-nAChR ligand binding domain / human GlyRα1 ion pore domain) in Lenti-X 293T cells
# Assay: YFP fluorescence quenching anion reporter plate reader assay (percent quench, EC50)
# Assay type: cell-based
# Conditions: for YFP fluorescence quenching using CNL001 (percent quench): receptor named in row; for YFP fluorescence quenching using Varenicline, 3 nM var: ligand Varenicline 3 nM; for YFP fluorescence quenching using Varenicline, 30 nM var: ligand Varenicline 30 nM; for YFP fluorescence quenching using Varenicline, 300 nM var: ligand Varenicline 300 nM; for YFP fluorescence quenching using Varenicline, 500 nM var: ligand Varenicline 500 nM; for YFP fluorescence quenching using Varenicline, 1 uM var: ligand Varenicline 1 uM
# Excerpt: To screen these mutant LGICs for those having novel response profiles to ligands, an anion reporter assay was developed to assess the function of the LGICs in a high throughput format. In this assay, cells expressing a YFP reporter whose fluorescence is quenched in the presence of anion are transfected with DNA encoding the channel of interest. Upon exposure to ligand, channels that are activated will flux anion, resulting in a dose-dependent quench of the YFP that can be detected on a plate reader. The greater the quench signal (i.e., the more positive the value), the higher the ligand activity on the receptor is.
# Lenti-X 293T cells (LX293T, Clontech) were maintained in DMEM containing 10% FBS and 1% penicillin/streptomycin (Invitrogen). […] Two days before assay, cells were split at a density of 20,000 cells/well in a 96-well tissue culture plate coated with poly-d lysine (Thermo Scientific). The next day, the cells were transiently transfected with 0.1 μg of DNA per well using standard Fugene protocol (Promega). On the day of assay, cells were washed 2 times in 1X extracellular solution (1X ECS: 140 mM NaCl, 5 mM KCl, 1 mM MgCl2, 2 mM CaCl2, 10 mM HEPES, 10 mM glucose, pH 7.2, mOsms 300). After the last wash, 100 μL of 1X ECS was added to the wells and the plate was incubated at 37° C. for 30 min. While incubating the plate, the drugs were diluted to a 2X concentration in 1X ECS-Nal (same components as 1X ECS except the 140 mM NaCl was replaced by 140 mM Nal). The plates were then read on a Flexstation3 (Molecular Devices). Each well, 8 wells at a time, of the plate is read for 2 min using a Flexstation3 (Molecular Devices) as follows: 1) a baseline YFP fluorescence is read for 17 sec, 2) 100 μL of ligand is added, and 3) the changes in YFP fluorescence are then measured every 1.3 sec for 1 minute and 43 seconds. The percent quench is calculated from the average fluorescence of the last 10 seconds of the read divided by the baseline average of the first 15 seconds prior to the ligand addition.
# FIGS. 1A-1J provide heat maps of the percent quench of YFP fluorescence following stimulation by various doses of either acetylcholine or the non-native ligand as indicated in the Figures. CODA71 (SEQ ID NO: 33) was used as a control, and CODA75 (SEQ ID NO: 29, a non-responding chimeric engineered receptor) was used as the negative control. Quenching of the fluorescence signal, as indicated by blue shaded cells, indicate the level of engineered receptor activation by the non-native ligand at that concentration.
molecule,measurement,setting,value
B1,YFP fluorescence quenching using CNL001 (percent quench),"1 nM CNL001, first column so headed",76.165%
same,YFP fluorescence quenching using CNL001 (percent quench),"1 nM CNL001, second column so headed",78.463%
same,YFP fluorescence quenching using TC-5619/Bradanicline (percent quench),1 nM brd (TC-5619/Bradanicline),−0.85%
same,YFP fluorescence quenching using TC-5619/Bradanicline (percent quench),3 nM brd (TC-5619/Bradanicline),−2.05%
same,YFP fluorescence quenching using CNL001 (percent quench),"10 nM CNL001, first column so headed",79.349%
same,YFP fluorescence quenching using CNL001 (percent quench),"10 nM CNL001, second column so headed",78.238%
same,YFP fluorescence quenching using TC-5619/Bradanicline (percent quench),10 nM brd (TC-5619/Bradanicline),−2.8%
same,YFP fluorescence quenching using TC-6683 (percent quench),30 nM TC-6683,−23.88%
same,YFP fluorescence quenching using TC-5619/Bradanicline (percent quench),30 nM brd (TC-5619/Bradanicline),−2.07%
same,YFP fluorescence quenching using CNL001 (percent quench),"50 nM CNL001, first column so headed",80.221%
same,YFP fluorescence quenching using CNL001 (percent quench),"50 nM CNL001, second column so headed",81.789%
same,YFP fluorescence quenching using ABT-126 (percent quench),50 nM abt (ABT-126),−20.99%
same,YFP fluorescence quenching using CNL001 (percent quench),"100 nM CNL001, first column so headed",81.855%
same,YFP fluorescence quenching using CNL001 (percent quench),"100 nM CNL001, second column so headed",80.766%
same,YFP fluorescence quenching (percent quench),100 nM CNL002,−15.44%
same,YFP fluorescence quenching using ABT-126 (percent quench),100 nM abt (ABT-126),−16.21%
same,YFP fluorescence quenching using AZD-0328 (percent quench),100 nM azd0328,38.49%
same,YFP fluorescence quenching using TC-5619/Bradanicline (percent quench),100 nM brd (TC-5619/Bradanicline),30.34%
same,YFP fluorescence quenching using TC-6683 (percent quench),300 nM TC-6683,−21.46%
same,YFP fluorescence quenching using ABT-126 (percent quench),300 nM abt (ABT-126),−13.34%
same,YFP fluorescence quenching using AZD-0328 (percent quench),300 nM azd0328,67.13%
same,YFP fluorescence quenching using TC-5619/Bradanicline (percent quench),300 nM brd (TC-5619/Bradanicline),50.56%
same,YFP fluorescence quenching using CNL001 (percent quench),"1 uM CNL001, first column so headed",81.707%
same,YFP fluorescence quenching using CNL001 (percent quench),"1 uM CNL001, second column so headed",82.665%
same,YFP fluorescence quenching (percent quench),1 uM CNL002,15.21%
same,YFP fluorescence quenching using ABT-126 (percent quench),1 uM abt (ABT-126),4.96%
same,YFP fluorescence quenching using TC-5619/Bradanicline (percent quench),1 uM brd (TC-5619/Bradanicline),72.42%
same,YFP fluorescence quenching using TC-6683 (percent quench),3 uM TC-6683,−21.07%
same,YFP fluorescence quenching (percent quench),10 uM ach (acetylcholine),−10.11%
same,YFP fluorescence quenching using TC-6683 (percent quench),30 uM TC-6683,−16.15%
same,YFP fluorescence quenching using AZD-0328 (percent quench),30 uM azd0328,80.61%
same,YFP fluorescence quenching using TC-6683 (percent quench),100 uM TC-6683,−18.96%
same,YFP fluorescence quenching (percent quench),100 uM ach (acetylcholine),−10.05%
same,YFP fluorescence quenching (percent quench),1 mM ach (acetylcholine),32.11%
same,YFP fluorescence quenching (percent quench),3 mM ach (acetylcholine),57.37%
same,"YFP fluorescence quenching using Facinicline, 30 nM fac",ligand Facinicline 30 nM,6.27
same,"YFP fluorescence quenching using Facinicline, 300 nM fac",ligand Facinicline 300 nM,69.8
same,"YFP fluorescence quenching using Facinicline, 10 uM fac",ligand Facinicline 10 uM,80.07
same,"YFP fluorescence quenching using Facinicline, 30 uM fac",ligand Facinicline 30 uM,81.35
same,"YFP fluorescence quenching using TC-6987, 1 uM tc6987",ligand TC-6987 1 uM,−3.87
same,"YFP fluorescence quenching using TC-6987, 3 uM tc6987",ligand TC-6987 3 uM,−20.2
same,"YFP fluorescence quenching using TC-6987, 5 uM tc6987",ligand TC-6987 5 uM,−15.25
same,"YFP fluorescence quenching using TC-6987, 10 uM tc6987",ligand TC-6987 10 uM,4.92
same,"YFP fluorescence quenching using TC-6987, 30 uM tc6987",ligand TC-6987 30 uM,14.75
same,"YFP fluorescence quenching using TC-6987, 50 uM tc6987",ligand TC-6987 50 uM,21.33
same,"YFP fluorescence quenching using TC-6987, 100 uM tc6987",ligand TC-6987 100 uM,29.7
same,"YFP fluorescence quenching using TC-6987, 300 uM tc6987",ligand TC-6987 300 uM,20.79
same,"YFP fluorescence quenching using TC-6987, 500 uM tc6987",ligand TC-6987 500 uM,44.37
same,"YFP fluorescence quenching using Varenicline, 3 nM var",first column,−4.782
same,"YFP fluorescence quenching using Varenicline, 3 nM var",second column,1.048
same,"YFP fluorescence quenching using Varenicline, 30 nM var",first column,2.084
same,"YFP fluorescence quenching using Varenicline, 30 nM var",second column,5.022
same,"YFP fluorescence quenching using Varenicline, 300 nM var",first column,12.162
same,"YFP fluorescence quenching using Varenicline, 300 nM var",second column,12.979
same,"YFP fluorescence quenching using Varenicline, 500 nM var",first column,29.238
same,"YFP fluorescence quenching using Varenicline, 500 nM var",second column,25.614
same,"YFP fluorescence quenching using Varenicline, 1 uM var",first column,43.863
same,"YFP fluorescence quenching using Varenicline, 1 uM var",second column,39.346
